Data: patent US20150285818A1, “Switchable Reporter Enzymes for Homogenous Antibody Detection” (TECHNISCHE UNIVERSITEIT EINDHOVEN, priority 2012, published 2015)

Key:
…-GGG-C(fluorescein) [1] = assay: fluorescence polarization, 2 nM labelled peptide titrated with antibody
…-GGG-C(fluorescein) [2] = assay: fluorescence polarization, 2 nM fluorescein-labelled peptide titrated with antibody
[3] = target: WEKIRLR-GGG-C(fluorescein) (HIV1); assay: fluorescence polarization, 10 nM labelled peptide titrated with antibody
[4] = target: …-GGG-C(fluorescein) (HIV1); assay: as above
[5] = target: WEKIRLR-GGG-C(fluorescein) (HIV1); assay: fluorescence polarization, 10 nM fluorescein-labelled peptide titrated with antibody
[6] = target: …-GGG-C(fluorescein) (HIV1); assay: as above

Substance | Kd (…-GGG-C(fluorescein) [1]) [nM] | EC50 (read off the curve) (…-GGG-C(fluorescein) [2]) [nM] | Kd [3] [nM] | Kd [4] [nM] | EC50 (read off the curve) [5] [nM] | EC50 (read off the curve) [6] [nM]
HA monoclonal antibody (clone 2-2.2.14, Thermo Scientific) | 0.58 | 1 to 2 |  |  |  | 
anti-HIV-1-p17 antibody (clone 32/1.24.89, Zeptometrix) |  |  | 3300 | 24 | 3000 | 30
